Like-named read-outs stand apart in the source and are kept apart here. Where no end group is shown, it is not given here. [ ]: non-standard residue; d: D form. Tyr(3-I) = N[C@@H](Cc1ccc(O)c(I)c1)C(=O)O; pGlu = O=C1CC[C@@H](C(=O)O)N1

Experiment [1] deals with T1, CEGPCR7 (C. elegans), Q18534.
T1 chain: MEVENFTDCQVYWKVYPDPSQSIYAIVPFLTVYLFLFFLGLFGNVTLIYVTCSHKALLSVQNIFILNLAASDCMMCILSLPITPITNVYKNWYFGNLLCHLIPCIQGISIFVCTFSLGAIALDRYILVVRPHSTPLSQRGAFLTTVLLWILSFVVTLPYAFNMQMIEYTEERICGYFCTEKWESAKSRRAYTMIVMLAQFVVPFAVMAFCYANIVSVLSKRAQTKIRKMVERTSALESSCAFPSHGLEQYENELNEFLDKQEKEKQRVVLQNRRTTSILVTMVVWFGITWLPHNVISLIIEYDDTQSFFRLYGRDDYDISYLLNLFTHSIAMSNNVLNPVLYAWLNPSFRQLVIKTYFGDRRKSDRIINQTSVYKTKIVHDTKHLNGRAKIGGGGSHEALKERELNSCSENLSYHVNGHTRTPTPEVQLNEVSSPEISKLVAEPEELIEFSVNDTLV
As to the kind of experiment: cell-based or functional assay.

Another experiment concerns the target T2, CEGPCR4 (C. elegans).
T2 chain: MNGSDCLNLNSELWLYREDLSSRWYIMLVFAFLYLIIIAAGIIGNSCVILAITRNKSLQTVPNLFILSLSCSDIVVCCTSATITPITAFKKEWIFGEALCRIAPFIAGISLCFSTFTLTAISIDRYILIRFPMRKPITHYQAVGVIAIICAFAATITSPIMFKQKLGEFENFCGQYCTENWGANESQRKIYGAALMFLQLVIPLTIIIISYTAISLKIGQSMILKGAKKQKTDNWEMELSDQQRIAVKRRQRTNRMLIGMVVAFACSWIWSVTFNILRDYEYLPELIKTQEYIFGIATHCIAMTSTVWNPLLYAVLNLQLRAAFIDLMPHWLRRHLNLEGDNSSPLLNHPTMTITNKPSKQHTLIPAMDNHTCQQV
Put plainly: competition binding assay, CEGPCR4/CHO membranes, vs [125I-Y]DVPGVLRF-NH2.

Another experiment has as its target T3, CEGPCR3 (C. elegans, UniProt P90745 1-376).
T3 sequence: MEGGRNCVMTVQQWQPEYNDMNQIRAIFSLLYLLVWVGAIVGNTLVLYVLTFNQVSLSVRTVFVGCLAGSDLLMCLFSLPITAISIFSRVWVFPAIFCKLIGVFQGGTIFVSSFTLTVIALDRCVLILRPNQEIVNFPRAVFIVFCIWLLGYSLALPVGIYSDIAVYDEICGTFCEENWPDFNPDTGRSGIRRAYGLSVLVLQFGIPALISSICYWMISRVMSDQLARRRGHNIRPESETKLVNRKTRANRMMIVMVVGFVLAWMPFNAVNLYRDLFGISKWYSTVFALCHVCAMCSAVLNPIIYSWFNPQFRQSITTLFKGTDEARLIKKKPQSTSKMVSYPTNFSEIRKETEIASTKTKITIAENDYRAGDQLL
Put plainly: cell-based or functional assay.

Another experiment deals with T4, CEGPCR4 (C. elegans).
T4 construct: Expressed in CHO cells
T4 chain: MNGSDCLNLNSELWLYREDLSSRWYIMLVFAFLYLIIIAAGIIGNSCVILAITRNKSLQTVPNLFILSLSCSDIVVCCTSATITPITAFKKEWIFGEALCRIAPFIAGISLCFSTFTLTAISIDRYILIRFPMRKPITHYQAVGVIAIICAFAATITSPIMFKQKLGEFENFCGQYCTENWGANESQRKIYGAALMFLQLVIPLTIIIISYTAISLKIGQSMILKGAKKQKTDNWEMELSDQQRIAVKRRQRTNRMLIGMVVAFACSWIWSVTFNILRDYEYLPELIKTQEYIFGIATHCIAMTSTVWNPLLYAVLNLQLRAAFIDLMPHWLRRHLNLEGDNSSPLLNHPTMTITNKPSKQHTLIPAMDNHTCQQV
As to the kind of experiment: competition binding assay, CEGPCR4/CHO membranes, vs [125I-Y]DVPGVLRF-NH2.

Another experiment concerns the target T5, CEGPCR16 (C. elegans).
T5 chain: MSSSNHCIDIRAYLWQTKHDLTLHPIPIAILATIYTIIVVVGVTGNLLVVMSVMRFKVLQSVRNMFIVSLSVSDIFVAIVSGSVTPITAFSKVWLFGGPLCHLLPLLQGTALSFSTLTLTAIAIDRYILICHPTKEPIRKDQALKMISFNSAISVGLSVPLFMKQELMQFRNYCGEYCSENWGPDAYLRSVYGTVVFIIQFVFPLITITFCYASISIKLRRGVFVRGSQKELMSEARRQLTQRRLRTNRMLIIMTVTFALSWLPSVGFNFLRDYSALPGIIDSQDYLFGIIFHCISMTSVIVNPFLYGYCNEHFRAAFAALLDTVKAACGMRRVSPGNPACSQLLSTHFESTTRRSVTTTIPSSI
As to the kind of experiment: cell-based or functional assay.

A further experiment has as its target T6, CEGPCR12h (C. elegans).
T6 chain: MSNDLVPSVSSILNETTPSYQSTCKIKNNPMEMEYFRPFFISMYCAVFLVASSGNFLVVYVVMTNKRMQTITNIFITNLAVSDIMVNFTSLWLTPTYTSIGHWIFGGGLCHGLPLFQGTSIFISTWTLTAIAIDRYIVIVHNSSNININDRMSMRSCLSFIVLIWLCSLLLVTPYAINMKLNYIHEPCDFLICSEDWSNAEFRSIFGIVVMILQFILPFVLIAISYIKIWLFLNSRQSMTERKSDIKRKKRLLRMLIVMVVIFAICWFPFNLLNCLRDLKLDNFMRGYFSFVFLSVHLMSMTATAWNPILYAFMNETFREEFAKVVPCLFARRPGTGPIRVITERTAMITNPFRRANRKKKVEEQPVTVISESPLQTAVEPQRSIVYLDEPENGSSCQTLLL
Put plainly: cell-based or functional assay.

B1: …-NH2 (AF9) (peptide)
peptide: GLGPRPLRF-NH2
For the molecule B1, in experiment [1], the AF9-induced [35S]GTPγS binding, cells kept at 37° C. (third of three experiments; no stimulation in the other two) worked out at 1.4 fold; the AF9-induced [35S]GTPγS binding, cooling (28° C.) protocol worked out at 2.6 fold; the EC50, GTPγS assay stood at 207 nM.

B2: GMPGVLRF-NH2 (AF20) (peptide)
peptide: GMPGVLRF-NH2
Turning to B2, the IC50 (as a rule, the concentration that gives 50% inhibition) in the experiment with CEGPCR4 (C. elegans) is 0.0005 to 0.01 µM.

B3: p…-NH2 (leucomyosuppressin) (peptide)
peptide: [pGlu]DVDHVFLRF-NH2
SMILES: CC(C)C[C@H](NC(=O)[C@H](Cc1ccccc1)NC(=O)[C@@H](NC(=O)[C@H](Cc1c[nH]cn1)NC(=O)[C@H](CC(=O)O)NC(=O)[C@@H](NC(=O)[C@H](CC(=O)O)NC(=O)[C@@H]1CCC(=O)N1)C(C)C)C(C)C)C(=O)N[C@@H](CCCNC(=N)N)C(=O)N[C@@H](Cc1ccccc1)C(N)=O
For B3, in the experiment with CEGPCR4 (C. elegans), the IC50 was in the range of 60 to 900 µM.

B4: GGPQGPLRF-NH2 (peptide)
peptide: GGPQGPLRF-NH2
In the case of B4, the “EC50, GTPγS assay” value in the experiment with CEGPCR3 was determined as 152 nM. The IC50 with CEGPCR4 lay in the range of 50000 to 500000 nM.

B5: …-NH2 (dromyosuppressin) (peptide)
peptide: TDVDHVFLRF-NH2
Consider B5, for which, in the experiment with CEGPCR4 (C. elegans), the IC50 was in the range of 50 to 500 µM.

B6: …-NH2 (AF4) (peptide)
peptide: GDVPGVLRF-NH2
The molecule B6 gave an IC50 in the experiment with CEGPCR4 (C. elegans) of 0.0005 to 0.01 µM.

B7: 3-Iodo-Y-GVLRF-NH2 (peptide)
peptide: [Tyr(3-I)]GVLRF-NH2
modifications: N-terminus assumed
SMILES: CC(C)C[C@H](NC(=O)[C@@H](NC(=O)CNC(=O)[C@@H](N)Cc1ccc(O)c(I)c1)C(C)C)C(=O)N[C@@H](CCCNC(=N)N)C(=O)N[C@@H](Cc1ccccc1)C(N)=O
notes: Synthetic
In the experiment with CEGPCR4, B7 showed an IC50 of 1 to 60 nM.

B8: GNSFLRF-NH2 (peptide)
peptide: GNSFLRF-NH2
notes: also called GNSFLRFamide
As for B8, the “EC50, GTPγS assay” value in the experiment with CEGPCR3 turned out to be 7900 nM. The IC50 in the experiment with CEGPCR4 is 60000 to 900000 nM.

B9: SVPGVLRF-NH2 (peptide)
peptide: SVPGVLRF-NH2
Turning to B9, the “EC50, [35S]GTPγS assay” value in the experiment with CEGPCR16 turned out to be 64 nM. This molecule gave an IC50 with CEGPCR4 of 0.5 to 10 nM.

B10: …-NH2 (SchistoFLRFa) (peptide)
peptide: PDVDHVFLRF-NH2
In turn, B10 came in with an EC50, [35S]GTPγS assay with CEGPCR12h (C. elegans) of 330 nM. In the experiment with CEGPCR4 (C. elegans), this molecule had an IC50 of 60 to 900 µM.

B11: AVPGVLRF-NH2 (AF3) (peptide)
peptide: AVPGVLRF-NH2
The molecule B11 had an IC50 with CEGPCR4 (C. elegans) of 0.0005 to 0.01 µM.

B12: 3-Iodo-Y-VPGVLRF-NH2 (peptide)
peptide: [Tyr(3-I)]VPGVLRF-NH2
modifications: N-terminus assumed
SMILES: CC(C)C[C@H](NC(=O)[C@@H](NC(=O)CNC(=O)[C@@H]1CCCN1C(=O)[C@@H](NC(=O)[C@@H](N)Cc1ccc(O)c(I)c1)C(C)C)C(C)C)C(=O)N[C@@H](CCCNC(=N)N)C(=O)N[C@@H](Cc1ccccc1)C(N)=O
notes: Synthetic
Regarding B12, in the experiment with CEGPCR4, the IC50 is 1 to 60 nM.

B13: GPSGPLRF-NH2 (peptide)
peptide: GPSGPLRF-NH2
On to B13, for which the “EC50, GTPγS assay” value with CEGPCR3 was 422 nM.

B14: 3-Iodo-Y-PGVLRF-NH2 (peptide)
peptide: [Tyr(3-I)]PGVLRF-NH2
modifications: N-terminus assumed
SMILES: CC(C)C[C@H](NC(=O)[C@@H](NC(=O)CNC(=O)[C@@H]1CCCN1C(=O)[C@@H](N)Cc1ccc(O)c(I)c1)C(C)C)C(=O)N[C@@H](CCCNC(=N)N)C(=O)N[C@@H](Cc1ccccc1)C(N)=O
notes: Synthetic; also called 3-Ioda-Y-PGVLRF-NH2
In the experiment with CEGPCR4, B14 had an IC50 of 1 to 60 nM.

B15: SEVPGVLRF-NH2 (peptide)
peptide: SEVPGVLRF-NH2
B15 gave an IC50 with CEGPCR4 of 0.5 to 10 nM.

The record behind these values is patent US20050176069A1 (PHARMACIA AND UPJOHN, published 2005).
